Assay: yeast display, Sf9 membrane polyspecificity reagent, FACS + sequencing; frameworks hold sequencing errors
Summary of the method: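 Synthetic nanobody libraries on Saccharomyces cerevisiae BJ5465 were galactose-induced for 36–48 hours, stained 1 hour at 4 °C with 10% biotinylated, detergent-solubilized Sf9 membrane reagent and enriched on streptavidin microbeads. FACS then separated cells into low and high (top ~1%) gates by anti-HA (expression) and streptavidin (reagent binding) fluorescence. Genes were colony-PCR amplified, MiSeq 2 × 250 sequenced and CDR-length filtered. A clone's polyreactivity label is that of its gate of origin.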

Row | Sequence | polyreactivity (PSR sort gate)
1 | QVQLVESGGGLVQAGGSLRLSCAASGSTFSNNSIGWYRQAPWKETELVAAISWYGDSTYADSVKGRFTISRDNAKNTVYLQMNSLKAEATAVYYCAKDTIITPGRRKSPRDRHGYWGQGTQVTVSS | low polyreactivity
2 | QVQLVESGGGLVQAGGSLRLSCAASGSTFSNYALGWYSQAPGKERELVAAITSRGGRTYYADSVKGRFTISRDNAKNTVYLQMNSLKPEDTAVYYCAARVGSGRAIDLYYYWGQGTQVTVSS | low polyreactivity
3 | QVQLVESGGGLVQAGGSLRLSCAASGSTFSNYAMGWYRQAPGKERELVAAISVRGGSTYYADSVKGRFTISRDNAKNTVYLQMNSLKPEDTAVYYCAKYYYYLRSARKYDYWGQGTQVTVSS | high polyreactivity
4 | QVQLVESGGGLVQAGGSLRLSCAASGSTFSNYAMGWYRQAPGKERELVASISNGGSTNYADSVKGRFTISRDNAMNTVYLQMNSLKPEDTSVYNCNAESKAKYDYWGQGTQVTVSS | low polyreactivity
5 | QVQLVESGGGLVQAGGSLRLSCAASGSTFSPNAMGWYRQAPGKERELVAAITGGGSTYADSVKGRFTISRDNAKNTVYLQMNSLKPEDTAVYYFNADSYSFPYYYWGQGTQVTVSS | low polyreactivity
6 | QVQLVESGGGLVQAGGSLRLSCAASGSTFSPNAMGWYRQAPGKERELVAAITYRGANTYYADSVKGRFTISRDNEKNTVYLQMNSLKPEDNAVYYCAAEYAYHHVGFGYWGQGTQVTVSS | low polyreactivity
7 | QVQLVESGGGLVQAGGSLRLSCAASGSTFSPNAMGWYRQAPGKERELVADIDWSGGGTYYADSVKGRFTISRDNAKNTVYLQMNSLKPEDTAVYYCAAGYVWWPFEYDYWGQGTQVTVSS | high polyreactivity
8 | QVQLVESGGGLVQAGGSLRLSCAASGSTFSPYAMGWYRQAPGKERELVAAITSSGGSTYYADSVKGRFTISRDNAKNTVYLQMNSLKPEDTAVYYCAAEGYYTSTYDLYDYYWGQGTQVTVSS | low polyreactivity
9 | QVQLVESGGGLVQAGGSLRLSCAASGSTFSPYAMGWYRQAPGKERELVANITISGGSTYYADSVKGRFTISRDNAKNTVYLQMNSLKPEDTAVYYCNADSLIRWLFTVVIFDYWGQGTQVTVSS | low polyreactivity
10 | QVQLVESGGGLVQAGGSLRLSCAASGSTFSPYARGWYRQAPGKERELVANITISGGSTYYADSVKGRFTISRENAKNTVYFQMNSLKPEDTGVYYSNADSLIRWLFTVVIFDYWGQGTQVTVSS | low polyreactivity
11 | QVQLVESGGGLVQAGGSLRLSCAASGSTFSRNAKGWYRQAPGKERELVAAITRSGGSTYYADSVKGRFTISRDNAKNTVYLQMNSLKPEDTAVYYCAVAVPRGVYLYDYWGQGTQVTVSS | low polyreactivity
12 | QVQLVESGGGLVQAGGSLRLSCAASGSTFSRNAMGWYRQAPGKERELVAAITRSGGSTYYADSVKGRFTISRDNAKNTVYLQMNSLKPEDTAVYYCAVAVPRGVYLYDYWGQGTQVTVSS | low polyreactivity
13 | QVQLVESGGGLVQAGGSLRLSCAASGSTFSRNAMGWYRQAPGKERELVASISWSGARTYYADSVKGRFTISRDNAKNTVYLQMNSLKPEDTAVYYCAKFRSYRGPYNYWGQGTQVTVSS | high polyreactivity
14 | QVQLVESGGGLVQAGGSLRLSCAASGSTFSRNAMGWYRQAPGKERELVATISRSGRTNYADSVKGRFTISRDNAKNTVYLQMNSLKPEDTAVSYCNAGYRRSYEYWGQGTQVTVSS | low polyreactivity
15 | QVQLVESGGGLVQAGGSLRLSCAASGSTFSRNAMGWYRQAPGKERELVATISWRGGSTYYADSVKGRFTISRDNAKNTVYLQMNSLKPEDTAVYYCATLHRPAYYYWGQGTQVTVSS | high polyreactivity
16 | QVQLVESGGGLVQAGGSLRLSCAASGSTFSRYAMGWDRQAPGKEMELVAAISSSGGGTYYADSVKGRFTISRDNAKNTVYLQMNSLKPEDTAVSYCAAKRVHGATGYWGQGTQVTVSS | high polyreactivity
17 | QVQLVESGGGLVQAGGSLRLSCAASGSTFSRYAMGWSRQAPGKERELVAVITGSGGSTYYADSVKGRFTISRDNAKNTVYLQMNSLKPEDTAVYYCNAVYFALSPQYYWAASDYWGQGTQVTVSS | high polyreactivity
18 | QVQLVESGGGLVQAGGSLRLSCAASGSTFSRYAMGWYRPAPGKERELVAAISYSGDSTYYADSVKGRFTISRDNAKNTVYLQMNSLKPEDTAVYYCNVYSHYRGYYWGQGTQVTVSS | high polyreactivity
19 | QVQLVESGGGLVQAGGSLRLSCAASGSTFSRYAMGWYRQAPGKERELVAAISSRGGSTYYADSVKGRFTISRDNAKNTVYLQMNSLKPEDTAVYYCNALTSYQNHVYPYDYWGQGTQVTVSS | high polyreactivity
20 | QVQLVESGGGLVQAGGSLRLSCAASGSTFSRYAMGWYRQAPGKERELVAAISSSGGSTYYADSVKGRFTISRDNAKNTVYLQMNSLKPEDTAVYYCAARYYGVTRGYNYWGQGTQVTVSS | high polyreactivity
21 | QVQLVESGGGLVQAGGSLRLSCAASGSTFSRYAMGWYRQAPGKERELVAAISWGGNTYYADSVKGRFTISRDNAKNTVYLQMNSLKPEDTAVYYCNRYSKLYNTMDYWGQGPQVTVSS | high polyreactivity
22 | QVQLVESGGGLVQAGGSLRLSCAASGSTFSRYAMGWYRQAPGKERELVAAITYRGARTYYADSVKGRFTISRDNAKNTVYLQMNSLKPEDTAVYYCNTVPPPYNFRYGYWGQGTQVTVSS | high polyreactivity

Row | Sequence | polyreactivity (PSR sort gate)
23 | QVQLVESGGGLVQAGGSLRLSCAASGSTFSRYPMGWSRQAPGKERELVAAISWGGNTYYADSVKGRFTISRDNAKNTVYLQMNSLQPEDTAVYYCNRYSKLYNTMDYWGQGTQVTVSS | high polyreactivity
24 | QVQLVESGGGLVQAGGSLRLSCAASGSTFSSLIMGWYRQAPGKERELVAAISRSGGRTYYADSVKGRFTISRDNAKNTVYLQMNSLIPEDTAVYYCAADYVSVDRIRYGYCGQGTQVTVSS | high polyreactivity
25 | QVQLVESGGGLVQAGGSLRLSCAASGSTFSSYAMGWYRQAPGKEREIVADINGSGGRTYYADSVKGRFTISRDNAKNTVYLQMNSLKPEDTAVYYCIAYYLQGEYYTEDYWGQGTQVTVSS | low polyreactivity
26 | QVQLVESGGGLVQAGGSLRLSCAASGSTFSTNARGWYRQAPGKERELVAAINWSTGSTHYADSVKGRFTISRDNAKNTVYLQMNSLKPEDTAVYFCAAEGPKQYDYWGQGYQVTVSS | low polyreactivity
27 | QVQLVESGGGLVQAGGSLRLSCAASGSTFSTYAMGWYRQAPGKEREFVAAIRWSGGSTYYADSVKGRFTISRDNAKNTVYLQMNSLKREHTAVYYSAKGIRRWYGGCDYWGQGTKVTVSS | low polyreactivity
28 | QVQLVESGGGLVQAGGSLRLSCAASGSTFSTYAMGWYRQAPGKERELVATISKRGGSTYYADSVKGRFTISRDNAKNTVYLQMNSLKAEDTAVYYCDARWQWLNGYYYWGQGTQVSVSS | high polyreactivity
29 | QVQLVESGGGLVQAGGSLRLSCAASGSTFSVNAMGWYRQAPGKEREFVARITWRGGSTYYADSVKRRFTISRDNAKNTVYLQMNSLKPEDTAVYYCAATLRYWWRSSYEDYYWGQGTQVTVSS | low polyreactivity
30 | QVQLVESGGGLVQAGGSLRLSCAASGSTFSVYALGWYRPAPGKERELVAVISSTDDSTYYADSVKGRFTISRDNAKNTVYLQMNSLKPEDTAVYYCAAPDDTTGYDYYYWGQGTQVTVSS | low polyreactivity
31 | QVQLVESGGGLVQAGGSLRLSCAASGSTFSVYAMGWYRQAPGKERELVAAISTSGGSTYYADSVKGRFTISRDNAKNTVYLQMNSLKTEDTAVYYCNAEYSGYIYPYSYPIYYWYDYWGQGTQVTVSS | high polyreactivity
32 | QVQLVESGGGLVQAGGSLRLSCAASGSTFSVYAMGWYRQAPGKERELVAAISWSGGSTYYADSVKGRFTISRDNAKNTVYLQMNSLKPEDTAVYYCNATVTYYRYYAYVRRYYWGQGTQVTVSS | high polyreactivity
33 | QVQLVESGGGLVQAGGSLRLSCAASGSTFSWYAMGWYRQAPGKERELVAAISYSGGTYYADSVKGRFTISRDNAKNTVYLQMNSLKPEDTAVYYCAALRTRYGYDYWGQGTQVTVSS | high polyreactivity
34 | QVQLVESGGGLVQAGGSLRLSCAASGSTFSWYVMGWYRQAPGKERELVAAITRGGGSTYYADSVKGRFTISRDNAKNTVYLQMNSLKPEDAAVYYCNADPGFRSGDYGYSSFDYWGQGTQVTVSS | low polyreactivity
35 | QVQLVESGGGLVQAGGSLRLSCAASGSTFSYAMGWYRQAPGKERELVAAITIGGRTSYADSVKGRFTISRDNAKNTVYLQMNSLNPEDTAVYYCAADDLPGMDYWGQGSQVTVSS | low polyreactivity
36 | QVQLVESGGGLVQAGGSLRLSCAASGSTFSYMGWYRQAPGKERELVAAISYRGGRTYYADSVKGRFTISRDNAKNTVYLQMNSLTPEDTAVYYCNADGGRTYYSRYDYWGQGTQVTVSS | low polyreactivity
37 | QVQLVESGGGLVQAGGSLRLSCAASGSTFSYNAMGWYRQAPGKERELVAAIDRSVSTNYADSVKGRFTISRDNAKNTVYLQMNSLKPEDTAVYYCNARHPTDDIVIYDYWGQGTQVTVSS | low polyreactivity
38 | QVQLVESGGGLVQAGGSLRLSCAASGSTFSYNAMGWYRQAPGKERELVAAISRGGITNYADSVKGRFTISRDNAKNTVYLQMNSLKPEDTAVYYCNAGYLGGPSYEYWGQGTLVTVSS | low polyreactivity
39 | QVQLVESGGGLVQAGGSLRLSCAASGSTFSYNAMGWYRQAPGKERELVAAITSSGSSTYYADSVKGRFTISRYNAKNTVYLQMNSMKPEDTAVYYCNAEVLFVAGQVQRNSGDYWGQGTEVTVSS | low polyreactivity
40 | QVQLVESGGGLVQAGGSLRLSCAASGSTFSYSTMVWYRQPPGKERELVATISRRGASTYYADSVKGRFTISRDNAKNTVYLQMNSLKPEDTAVYYCAKSYYYGRSATRPEYDYWGQGTQVTVSS | high polyreactivity
41 | QVQLVESGGGLVQAGGSLRLSCAASGSTFSYYAMGWYRQAPGKEWEFVAAISRSGGRTYYADSVKGRFTISRDNAKNTVYLQMNSLKPEDTAVYYCATVYYYDFSRTHPWPGDYWGQGTQVTVSS | high polyreactivity
42 | QVQLVESGGGLVQAGGSLRLSCAASGSTFSYYNMGLYIQATGKERELLAAINRRGDSTYADSVKWRFTISRDNAKNTVYLQMNSLKPEDTAVYDCAADASVGVSGMDYWGQGTQVTVSS | low polyreactivity
43 | QVQLVESGGGLVQAGGSLRLSCAASGSTFSYYVMGWYRPAPGKERELVAAISGSGGSTYYADSVKGRFTISRDNAKNTVYLQMNSLKPEDTAVYYCDANDGSEYDYWGQGTQVTVSS | high polyreactivity

Source: the nanobody polyreactivity screen of Harvey et al. (2022)
